In the data set the target is Influenza A/H3N2 virus strain Ark1819002 (clade 3C.2a; virus protein quantified as hemagglutinin) (Influenza A virus (H3N2)) (UniProt P03437+P03437). The data set is described as follows: filter.

Where two headings read alike, the source gives them in different places.

The sequence “GGAGCUCAGCCUUCACUGCCAAAGUGCGAGGCAGUGUGGUGCUGUCCUACGAGUUCUAAAGUUCGUUAGGAAGGCAGCUCAACAUGUUUAACAGGCACCACCGUCGGAUCC [D12]” yielded a binding signal of 0.1 amol bound.

Turning to “GGGAGAAUUCCGACCAGAAGUCCCCUCCCUCGUAUCGUAUGUGCGUUUGCCCUUUCCUCUCUCCUUCCUCUUCU [P30-10-h1-5]”, the binding signal came to 80.3 amol bound.

As to “GGGAGAAUUCCGACCAGAAGGCGCGAUUGUGGUUGUGGUGGGUGGGCGCGCCUUUCCUCUCUCCUUCCUCUUCU [P30-10-h1-2]”, the binding signal was determined as 166 amol bound.

Consider “GGAGCUCAGCCUUCACUGCCAAAAAGUUAGGCCAGCAAAUUGCGAGCUGAUCCGGUGACUGGCUACAGGAGGCCUUGUCCACGGCCGUAUUGGCACCACCGUCGGAUCC [D26(2'-F)]”, for which, under “2'-F pyrimidines”, the binding signal was found to be 32.8 amol bound.

Sequence “GGGAGAAUUCCGACCAGAAGGCGCGAUUGUGUUGUGGUGGGUGGGCGCGCCUUUCCUCUCUCCUUCCUCUUCU [P30-10-h1-8]” registered a binding signal of 2.87 amol bound.

“GGGAGAAUUCCGACCAGAAGGGUCGGUGUAUAAUUGUAGUUUUGUUGUUGUUGUUGUUGUUGCCUUUCCUCUCUCCUUCCUCUUCU [P30-10-h1-10]” registered a binding signal of 60.7 amol bound.

The sequence “GGGAGAAUUCCGACCAGAAGUAGUAGCCCGGGUGUGGGUUUAUGGUCGUCCCUUUCCUCUCUCCUUCCUCUUCU [P30-10-h1-7]” had a binding signal of 17 amol bound.

The sequence “GGGAGAAUUCCGACCAGAAGUGUCGAUGUGUAUCUUAUUUGUUUGUUUGUUUGUUUGUUUGUCCUUUCCUCUCUCCUUCCUCUUCU [P30-10-h1-3]” had a binding signal of 37.3 amol bound.

As to “GGGAGAAUUCCGACCAGAAGGCUAUGGGUUGAGUUCUGUAUGGGUGGGUGCCUUUCCUCUCUCCUUCCUCUUCU [P30-10-h1-4]”, the binding signal was 232 amol bound.

For the sequence “GGGAGAAUUCCGACCAGAAGUAGUAGCCCGGGUGUGGGUUUAUGGCCGCCCCUUUCCUCUCUCCUUCCUCUUCU [P30-10-h1-6]”, the binding signal was 34.2 amol bound.

Turning to “GGGAGAAUUCCGACCAGAAGUAGUAGCCCGGGUGUGGGUUUAUGGUCGCCCCUUUCCUCUCUCCUUCCUCUUCU [P30-10-h1-1]”, the binding signal was 47.9 amol bound.

On to “GGGAGAAUUCCGACCAGAAGGAACAUUUGUGGGUGGUGUGGGUGGCUGUUCCUUUCCUCUCUCCUUCCUCUUCU [P30-10-h1-9]”, for which the binding signal came to 832 amol bound.

The values are drawn from patent publication US20220135977.
